Reference: the supplement of paper PMC10126150
± gives the standard deviation of the averaged measurements.

Test system: ATP
Experiment: switch fluorescence ratio, 500 uM ATP over buffer (Cy3 cluster intensity, sum of 5 cycles each) (fold (ratio)); higher = stronger signal-on switching upon ATP binding; sequences stand for … in TCGTCGGCAGCGTCAGATGTGTATAAGAGACAGTTTTTTTTTTTTTTTTTTTTTTTTT…TC
Conditions: aptamer strand: ATP DNA aptamer (quencher-CACCTGGGGGAGTATTGCGGAGGAAGG + anchor), 100 nM annealed; ATP concentration: 500 uM
Procedure, shortened: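 Clusters with intensities outside 100-1000 RFU were excluded. The remaining Cy3-labelled switching-strand clusters on a modified Illumina MiSeq flow-cell had been annealed to 100 nM quencher-labelled ATP aptamer and imaged in selection buffer, then after 15 min with 500 uM ATP at 22 °C, for five cycles separated by NaOH stripping and re-annealing. The fluorescence ratio, averaged per switch-domain sequence, is each cluster's summed target-cycle Cy3 intensity over its summed buffer-cycle Cy3 intensity.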
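Note: ATP exposure 15 min at 22 °C before imaging.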

GTTCTTTATC
switch fluorescence ratio: 0.994 ± 0.018

GATTTATTGG
switch fluorescence ratio: 0.983 ± 0.032

ACTTCGGGGC
switch fluorescence ratio: 1.12 ± 0.027

ATTTTGCTGG
switch fluorescence ratio: 0.999 ± 0.011

AAGGCCAATA
switch fluorescence ratio: 1.05 ± 0.033

TAGATGTATT
switch fluorescence ratio: 0.974 ± 0.013

TTTTACTTAC
switch fluorescence ratio: 1.25 ± 0.059

AGGATTAACA
switch fluorescence ratio: 1.05 ± 0.013

GGGAATAAGC
switch fluorescence ratio: 0.978 ± 0.034

GGGAAGAGGA
switch fluorescence ratio: 0.979 ± 0.025

GGAGTAGACT
switch fluorescence ratio: 1.02 ± 0.02

GCGAGGAGTA
switch fluorescence ratio: 1.01 ± 0.024

AGAGAGGAGT
switch fluorescence ratio: 0.982 ± 0.021

ATGTAGTTCC
switch fluorescence ratio: 1.064 ± 0.0022

ATAGCAGAAG
switch fluorescence ratio: 1.06 ± 0.012

CCAATGGGGG
switch fluorescence ratio: 0.982 ± 0.04

TGCGGGTTAG
switch fluorescence ratio: 0.984 ± 0.032

GAGGGTTGGC
switch fluorescence ratio: 0.95 ± 0.084

TTTGCGATGG
switch fluorescence ratio: 1.09 ± 0.011

TTGTTTTTGT
switch fluorescence ratio: 1.03 ± 0.032

CTGGCCAGTT
switch fluorescence ratio: 1 ± 0.013

GGTGATTTTA
switch fluorescence ratio: 1 ± 0.025

AACCAGCTGG
switch fluorescence ratio: 1.04 ± 0.03

ATAAGATTGC
switch fluorescence ratio: 0.991 ± 0.042

TAGTTGACCG
switch fluorescence ratio: 1.12 ± 0.11

ATCATGGGAC
switch fluorescence ratio: 1.03 ± 0.0069

ATCAACGGAA
switch fluorescence ratio: 1.08 ± 0.013

GGTTGAAGTA
switch fluorescence ratio: 0.989 ± 0.047

GTGCGATTTA
switch fluorescence ratio: 0.992 ± 0.034

GATAGATGTT
switch fluorescence ratio: 0.979 ± 0.02

CGTTTGTGTG
switch fluorescence ratio: 1.01 ± 0.011

TTTAATTAAT
switch fluorescence ratio: 0.983 ± 0.023

GGGGGCAATC
switch fluorescence ratio: 2.84 ± 0.54

GGGGGTGGAT
switch fluorescence ratio: 1 ± 0.025

TTTGCACCAT
switch fluorescence ratio: 1.03 ± 0.017

TCTTCGGTTT
switch fluorescence ratio: 1.11 ± 0.12

AAGGGGCGCA
switch fluorescence ratio: 0.969 ± 0.045

ATAGTTGTGG
switch fluorescence ratio: 0.977 ± 0.025

GGGTTGGACG
switch fluorescence ratio: 1.02 ± 0.053

GTCATCAGGT
switch fluorescence ratio: 1.008 ± 0.0058

GGGCAGGCTG
switch fluorescence ratio: 1 ± 0.023

AAGTTGTCTT
switch fluorescence ratio: 0.999 ± 0.027

TTGTCGGATT
switch fluorescence ratio: 0.991 ± 0.021

TAGCACTATC
switch fluorescence ratio: 1.35 ± 0.076

AAGTCTTGTT
switch fluorescence ratio: 0.97636 ± 0.00051

GTAGTAAGCG
switch fluorescence ratio: 0.953 ± 0.045

AGGGGTTTGG
switch fluorescence ratio: 0.983 ± 0.024

TTGTAAGATT
switch fluorescence ratio: 0.987 ± 0.0048

GAGAGTATGG
switch fluorescence ratio: 0.982 ± 0.049

ATTACGAAGA
switch fluorescence ratio: 1.01 ± 0.011

AAAGGAGCGT
switch fluorescence ratio: 0.992 ± 0.041

ATGTTTTCTT
switch fluorescence ratio: 0.998 ± 0.016

AATCAATTGT
switch fluorescence ratio: 0.978 ± 0.053

TTAAGTCAGT
switch fluorescence ratio: 0.9717 ± 0.005

TTGCGAGTC
switch fluorescence ratio: 0.996 ± 0.062

ATGGTTGAGG
switch fluorescence ratio: 0.987 ± 0.031

TTTAAAAAAA
switch fluorescence ratio: 1.02 ± 0.027

TACGTACAGC
switch fluorescence ratio: 1.7 ± 0.076

GGGATCAGCT
switch fluorescence ratio: 1.006 ± 0.0046

GAGCTGGAGG
switch fluorescence ratio: 1 ± 0.017

GCCATAGCTG
switch fluorescence ratio: 1.007 ± 0.0029

TTTTATTCCT
switch fluorescence ratio: 1.04 ± 0.037

TTATTTTTAA
switch fluorescence ratio: 0.9809 ± 0.0038

TTGGCAGGGA
switch fluorescence ratio: 0.998 ± 0.018

CGTGATTGCT
switch fluorescence ratio: 1.03 ± 0.074

AGGTAAAGGC
switch fluorescence ratio: 1.02 ± 0.022

TCTTGGTTTT
switch fluorescence ratio: 1.02 ± 0.044

GATTTGATGA
switch fluorescence ratio: 0.9959 ± 0.002

TTTTTGAGTA
switch fluorescence ratio: 1.02 ± 0.03

TTTGTCCCGT
switch fluorescence ratio: 0.98 ± 0.026

ACGGGTGGGG
switch fluorescence ratio: 1.05 ± 0.051

TGCGGTCCTG
switch fluorescence ratio: 1 ± 0.017

TATTAAGGGA
switch fluorescence ratio: 0.995 ± 0.012

GGGTTTGGTT
switch fluorescence ratio: 0.976 ± 0.041

GCGAGGTCGG
switch fluorescence ratio: 1.03 ± 0.07

CTGTCGGGGT
switch fluorescence ratio: 0.982 ± 0.037

TTGCAAGGCG
switch fluorescence ratio: 1 ± 0.062

AATTTAAAG
switch fluorescence ratio: 0.992 ± 0.037

GTACTATCTC
switch fluorescence ratio: 0.998 ± 0.046

CATGTATAGG
switch fluorescence ratio: 0.987 ± 0.032

AGATAAAATT
switch fluorescence ratio: 0.98 ± 0.056

GGTGAGACTT
switch fluorescence ratio: 1 ± 0.031

GGGGGGTACG
switch fluorescence ratio: 1 ± 0.05

GTTGACCTCG
switch fluorescence ratio: 0.992 ± 0.03

AGTCAAACGA
switch fluorescence ratio: 1.03 ± 0.028

TGGGGTAAGT
switch fluorescence ratio: 0.993 ± 0.032

CTCAGGCTTG
switch fluorescence ratio: 0.997 ± 0.052

CCCTGATCTG
switch fluorescence ratio: 1.02 ± 0.011

GGCGGATATT
switch fluorescence ratio: 0.9975 ± 0.0069

TTCAGACAGG
switch fluorescence ratio: 1.09 ± 0.02

GACATAGCGG
switch fluorescence ratio: 1.07 ± 0.03

ACGTATTACA
switch fluorescence ratio: 1.83 ± 0.87

GAGTATCTGC
switch fluorescence ratio: 1.01 ± 0.079

ACTGGCATCC
switch fluorescence ratio: 1.08 ± 0.029

TAGCATTGTG
switch fluorescence ratio: 1.02 ± 0.022

TAAACTGCGA
switch fluorescence ratio: 1.07 ± 0.054

CTTCCTGCCA
switch fluorescence ratio: 2.69 ± 0.36

CATGCGGATG
switch fluorescence ratio: 1.001 ± 0.0056

GAGTAAAACA
switch fluorescence ratio: 1.16 ± 0.27

TGAGGGGCGG
switch fluorescence ratio: 0.998 ± 0.039

TGCAGGGATG
switch fluorescence ratio: 0.986 ± 0.041

TGATTTTTTT
switch fluorescence ratio: 1.01 ± 0.031

CGTTGGGGCG
switch fluorescence ratio: 0.931 ± 0.035

GCATGATTTA
switch fluorescence ratio: 1 ± 0.051

AGGGATGCGG
switch fluorescence ratio: 0.99607 ± 0.00094

GAACCATGTT
switch fluorescence ratio: 0.977 ± 0.014

AAGGGGTCTA
switch fluorescence ratio: 1.002 ± 0.0085

AAGATTCATT
switch fluorescence ratio: 0.99763 ± 0.00055

ACTATTTGCA
switch fluorescence ratio: 1.019 ± 0.0057

TGAAATTCTT
switch fluorescence ratio: 1.012 ± 0.0094

GGTTGTACGA
switch fluorescence ratio: 0.986 ± 0.01

TACTATTTTT
switch fluorescence ratio: 1 ± 0.018

TATATGGCGG
switch fluorescence ratio: 0.9719 ± 0.0074

GAAGACGTTA
switch fluorescence ratio: 1.04 ± 0.023

TGTTGTATTT
switch fluorescence ratio: 1.01 ± 0.022

TGATGCAGTT
switch fluorescence ratio: 1.01 ± 0.018

ATGGACGCTA
switch fluorescence ratio: 1.12 ± 0.048

GACGGGGCGT
switch fluorescence ratio: 0.989 ± 0.013

GCTTGCTTTT
switch fluorescence ratio: 0.989 ± 0.022

AATACGGTCT
switch fluorescence ratio: 1 ± 0.06

CCAACGGGGA
switch fluorescence ratio: 1.1 ± 0.085

ACTACGCCCG
switch fluorescence ratio: 1.37 ± 0.085

GTGTTTTCTT
switch fluorescence ratio: 1.006 ± 0.0025

TATTTAAGTT
switch fluorescence ratio: 1.03 ± 0.013

GTAATGCTCA
switch fluorescence ratio: 1.36 ± 0.062

AGTCGTCTTG
switch fluorescence ratio: 0.977 ± 0.026

AGTGAGAGGG
switch fluorescence ratio: 0.966 ± 0.051

GCAAGCTAGG
switch fluorescence ratio: 1.03 ± 0.017

TGAAAGGGGA
switch fluorescence ratio: 1.03 ± 0.054

TTAAGTACGG
switch fluorescence ratio: 1.3 ± 0.016

GTTTAAATCC
switch fluorescence ratio: 0.989 ± 0.05

TCGGGTCAGT
switch fluorescence ratio: 1 ± 0.034

AAGATTTTAC
switch fluorescence ratio: 1.01 ± 0.019

GAGTGGGGGA
switch fluorescence ratio: 0.99 ± 0.023

CAGGATACGC
switch fluorescence ratio: 1.21 ± 0.34

GTTATCGTGC
switch fluorescence ratio: 0.992 ± 0.059

ACGTTTGAGG
switch fluorescence ratio: 0.988 ± 0.014

TTTCGTGCCT
switch fluorescence ratio: 1.065 ± 0.0026

AGAATTAAGG
switch fluorescence ratio: 1.01 ± 0.045

AGTCTGAAGG
switch fluorescence ratio: 0.995 ± 0.014

AAAGAAAAAT
switch fluorescence ratio: 1.002 ± 0.005

TCGCTATGCC
switch fluorescence ratio: 0.991 ± 0.13

AAAGTTATGT
switch fluorescence ratio: 1 ± 0.045

GGTAATGTTT
switch fluorescence ratio: 1.01 ± 0.014

GGGCATAGGA
switch fluorescence ratio: 1.03 ± 0.097

AAATAGGGTG
switch fluorescence ratio: 1.13 ± 0.18

ACGAGCGTGG
switch fluorescence ratio: 1 ± 0.011

AGGGGTGTAG
switch fluorescence ratio: 1.03 ± 0.057

GGCGGAGCTA
switch fluorescence ratio: 1.03 ± 0.049

TTTGGGATGC
switch fluorescence ratio: 1.07 ± 0.095

ATTAGGGTCT
switch fluorescence ratio: 0.986 ± 0.025

CAGCCGCTGT
switch fluorescence ratio: 1.79 ± 0.026

GATTAGACAC
switch fluorescence ratio: 1.013 ± 0.01

GGGAAATGGG
switch fluorescence ratio: 0.9747 ± 0.0087

GTTAATGTCC
switch fluorescence ratio: 0.994 ± 0.014

TTTTATCCTT
switch fluorescence ratio: 1 ± 0.028

GGGAAAAGTT
switch fluorescence ratio: 1 ± 0.04

TGCAGGAGGG
switch fluorescence ratio: 0.972 ± 0.022

TGGTGACTGA
switch fluorescence ratio: 0.981 ± 0.011

GGGAAGTTTT
switch fluorescence ratio: 0.978 ± 0.027

GGGAGCCTAT
switch fluorescence ratio: 1 ± 0.042

ATGAAAAAAT
switch fluorescence ratio: 0.974 ± 0.015

TTGCTGTTGC
switch fluorescence ratio: 1.001 ± 0.0095

CTTGAAAAGG
switch fluorescence ratio: 0.9995 ± 0.0038

GTGCTATAGT
switch fluorescence ratio: 1.031 ± 0.0018

ATCTGCCGGT
switch fluorescence ratio: 0.981 ± 0.017

GGTTGAATTG
switch fluorescence ratio: 0.974 ± 0.01

TTTGATCTTG
switch fluorescence ratio: 1.01 ± 0.013

AATTGCGGGA
switch fluorescence ratio: 0.9893 ± 0.0085

GACGTGTCAA
switch fluorescence ratio: 1.03 ± 0.019

TTATGGATGT
switch fluorescence ratio: 1.03 ± 0.013

TAGTGCCGGT
switch fluorescence ratio: 0.993 ± 0.016

GCACTTGTAA
switch fluorescence ratio: 1.005 ± 0.0056

AAGTGGGGCG
switch fluorescence ratio: 1.02 ± 0.034

ATAAGGGGTA
switch fluorescence ratio: 0.98 ± 0.019

AGAAAATTTT
switch fluorescence ratio: 1.03 ± 0.031

TGTGGTTGTT
switch fluorescence ratio: 1.02 ± 0.041

GCTAAAATTT
switch fluorescence ratio: 1 ± 0.029

TCAGATTGGC
switch fluorescence ratio: 1.04 ± 0.12

AGGCCGGTTT
switch fluorescence ratio: 1.017 ± 0.0061

AATGGCTGGG
switch fluorescence ratio: 0.999 ± 0.043

TAGCTGTCAC
switch fluorescence ratio: 1.04 ± 0.04

AGTCATAAAG
switch fluorescence ratio: 0.984 ± 0.014

GGATTGGATG
switch fluorescence ratio: 0.983 ± 0.046

GGGGACCGCG
switch fluorescence ratio: 0.969 ± 0.016

GCAGCCGTGT
switch fluorescence ratio: 1.03 ± 0.04

AGCCAGAGGG
switch fluorescence ratio: 1.005 ± 0.0055

ATCCGGGTGG
switch fluorescence ratio: 1 ± 0.059

TTGATACGTG
switch fluorescence ratio: 1.01 ± 0.058

GGGTGTGGGT
switch fluorescence ratio: 0.965 ± 0.026

GGCTATGGGG
switch fluorescence ratio: 1 ± 0.013

AATGCTTAGA
switch fluorescence ratio: 0.985 ± 0.03

CAGTGCGCGC
switch fluorescence ratio: 1.01 ± 0.026

ATTCACGGGC
switch fluorescence ratio: 1.08 ± 0.035

GGGGCGTTAG
switch fluorescence ratio: 1.002 ± 0.0065

TGGGATTAAG
switch fluorescence ratio: 0.987 ± 0.034

TGAAAAAAAC
switch fluorescence ratio: 0.9871 ± 0.0072

AGTTGAGAGA
switch fluorescence ratio: 1.01 ± 0.018

GGGTGGGGTC
switch fluorescence ratio: 1 ± 0.034

GGAGTAATTT
switch fluorescence ratio: 1.07 ± 0.016
